B1: library; numbered along this chain (parent)
chain: MAAAGGARLLRAASAVLGGPAGRWLHHAGSRAGSSGLLRNRGPGGSAEASRSLSVSARARSSSEDKITVHFINRDGETLTTKGKVGDSLLDVVVENNLDIDGFGACEGTLACSTCHLIFEDHIYEKLDAITDEENDMLDLAYGLTDRSRLGCQICLTKSMDNMTVRVPETVADARQSIDVGKTS

Variants of: B1
Assay: scaled log2 fold change in cell abundance, elesclomol vs control (0 = silent mean, 1 = nonsense mean) (scaled log2 ratio); higher = higher viability under elesclomol (loss of FDX1 cuproptosis function)
Settings: glucose 10 mM
Method: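 Deep mutational scan of full-length human FDX1: a pooled saturation-mutagenesis ORF library (every residue 2-184 mutated to all 19 amino acids plus stop, and silent codons where available) was expressed by lentivirus in FDX1-knockout ABC1 (14 days) or HEK293T (11 days) cells grown with elesclomol (ES) or DMSO control. Variant abundance came from ORF sequencing. The log2 fold change (ES vs control, mean of duplicates) was centred on the silent-variant mean (0) and scaled to the nonsense-variant mean (1). Higher values mean greater viability under ES, i.e. loss of FDX1 function in cuproptosis.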

[1] = with ABC1 FDX1 KO, elesclomol 5 nM, 14 days
[2] = with HEK293T FDX1 KO, elesclomol 40 nM, 11 days
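Further: variant abundance is its share of total variant reads in each endpoint sample, from next-generation sequencing of the integrated ORF PCR-amplified out of genomic DNA.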

| Variant | scaled log2 fold change [1] | scaled log2 fold change [2] |
| --- | --- | --- |
| R41E | 0.0687 | -0.798 |
| R41K | 0.264 | -0.114 |
| R41D | 0.137 | -0.209 |
| R41F | 0.347 | -0.469 |
| R41I | -0.144 | 0.109 |
| R41H | 0.145 | -0.535 |
| R41L | 0.167 | 0.278 |
| R41S | -0.22 | 0.473 |
| R41N | 0.199 | -0.371 |
| R41W | 0.107 | 0.227 |
| R41M | 0.173 | 0.0788 |
| R41G | -0.751 | 0.252 |
| R41P | -0.0791 | -0.655 |
| R41Y | -0.195 | -0.051 |
| R41V | -0.196 | -0.0931 |
| R41C | -0.0654 | -0.255 |
| R41Q | -0.31 | 0.698 |
| R41T | 0.311 | 0.274 |
| R41A | 0.281 | 0.851 |
| N40Q | -0.307 | 0.243 |
| N40F | -0.01 | 0.266 |
| N40P | -0.752 | 0.374 |
| N40C | -0.214 | 1.09 |
| N40I | 0.554 | -0.704 |

| Variant | scaled log2 fold change [1] | scaled log2 fold change [2] |
| --- | --- | --- |
| N40E | 0.118 | – |
| N40T | -0.748 | -0.708 |
| N40K | -0.0431 | 0.421 |
| N40S | 0.213 | 0.0876 |
| N40W | -0.166 | -0.235 |
| N40Y | -0.412 | -0.381 |
| N40L | -0.507 | 0.239 |
| N40R | 0.387 | 0.0477 |
| N40V | 0.408 | -0.147 |
| N40D | -0.359 | -0.577 |
| N40M | -0.291 | 0.304 |
| G44M | 0.13 | 0.703 |
| G44S | 0.141 | -0.291 |
| G44C | -0.366 | 0.858 |
| G44W | 0.253 | 0.857 |
| G44A | 0.246 | 2.06 |
| G44K | 0.187 | -0.0828 |
| G44F | -0.255 | -0.00392 |
| G44Q | 0.137 | 0.433 |
| G44V | -0.00617 | -0.478 |
| G44Y | 0.198 | -0.79 |
| G44H | -0.319 | – |
| G44R | 0.286 | 0.0773 |
| G44D | -0.0132 | -0.461 |

| Variant | scaled log2 fold change [1] | scaled log2 fold change [2] |
| --- | --- | --- |
| G44P | -0.094 | 0.309 |
| G44T | -0.238 | 0.0578 |
| G44I | 0.034 | 0.323 |
| G44L | -0.1 | 0.155 |
| G44E | 0.197 | 1.12 |
| G44N | 0.0836 | -0.289 |
| G42N | 0.133 | -0.235 |
| G42I | 0.277 | 0.513 |
| G42P | 0.28 | -0.219 |
| G42H | 0.257 | -0.419 |
| G42L | 0.249 | 0.513 |
| G42E | -0.302 | 0.67 |
| G42A | -0.139 | 0.0969 |
| G42V | 0.365 | -0.32 |
| G42R | 0.1 | -0.362 |
| G42C | 0.12 | 0.316 |
| G42M | 0.0351 | 0.622 |
| G42Y | 0.307 | – |
| G42Q | 0.242 | -0.336 |
| G42T | 0.268 | 0.377 |
| G42W | 0.29 | 1 |
| G42F | -0.0705 | -0.21 |
| G42S | 0.232 | -0.298 |
| G42D | -0.168 | 0.162 |

| Variant | scaled log2 fold change [1] | scaled log2 fold change [2] |
| --- | --- | --- |
| G42K | 0.0974 | 0.00685 |
| R39F | 0.0891 | -0.0588 |
| R39I | -0.111 | 0.989 |
| R39T | -0.117 | 0.0293 |
| R39V | 0.374 | -0.208 |
| R39H | 0.0443 | -0.509 |
| R39W | 0.0801 | 0.13 |
| R39A | 0.0642 | -0.565 |
| R39D | -0.217 | 1.07 |
| R39G | 0.577 | 0.061 |
| R39Y | 0.0455 | -0.31 |
| R39P | -0.972 | -0.296 |
| R39M | 0.188 | 0.344 |
| R39N | -0.39 | -0.278 |
| R39L | -0.142 | -0.141 |
| R39E | -0.217 | 0.936 |
| R39Q | -0.432 | 0.178 |
| R39K | -0.687 | -0.451 |
| R39S | 0.489 | 0.0758 |
| R39C | -0.483 | 0.689 |
| G45H | 0.0762 | 0.865 |
| G45C | 0.409 | -0.145 |
| G45F | -0.17 | -0.167 |
| G45A | 0.315 | -0.00746 |

| Variant | scaled log2 fold change [1] | scaled log2 fold change [2] |
| --- | --- | --- |
| G45D | -0.348 | 0.907 |
| G45E | 0.346 | 1.07 |
| P43D | -0.289 | -0.259 |
| P43Y | 0.138 | 0.846 |
| P43N | 0.14 | 1.24 |
| P43R | 0.273 | 0.259 |
| P43T | 0.0182 | -0.259 |
| P43S | -0.443 | -0.3 |
| P43A | -0.0498 | 1.29 |
| P43L | 0.34 | 1.08 |
| P43Q | 0.274 | -0.32 |
| P43E | 0.224 | 0.236 |
| P43F | -0.0201 | 0.822 |
| P43H | 0.442 | -0.548 |
| P43M | 0.182 | 0.0394 |
| P43K | 0.0332 | 0.445 |
| P43V | 0.149 | 0.888 |
| P43I | 0.392 | -0.356 |
| P43W | -0.19 | 0.313 |
| P43C | -0.0655 | 0.841 |
| P43G | 0.283 | 0.825 |

From the supplement of paper PMC12855868
